Experimental data: US20230365659A1 (EPSILON MOLECULAR ENGINEERING, published 2023)

B1: Bacillus subtilis-derived VHH-COVE3 (VHH)
VHH: AEVQLVESGGGFVQAGGSLRLSCRVSAPTFMTYTMAWFRQAPGNEREFVAALSKNFVTTSYADSVKGRFTISRDNAKNTVYLQMNSLKPEDTAVYYCNVAWSDYEYLEVWGQGTLVTVSSGGGSHHHHHH
B2: Bacillus subtilis-derived VHH-COVE5 (VHH)
VHH: EVQLVESGGGLVQAGGSLRLSCTASDQIFDNYNMAWFRQSPGKEREFVAALSWGDSNTGYADSVKGRFTISRDNAKNTVYLQMNSLKPEDTAVYYCYAVTWLRGDYWGQGTQVTVSS
B3: Bacillus subtilis-derived VHH-COVE7 (VHH)
VHH: EVQLVESGGGLVQAGDSLRLSCTASGRTFSSCAMGWFRQAPGKEREFVAAISRGGGSTSYADSVKGRFTISKDRARNTAYLEMNSLKPEDTAIYYCYAVFPSGGDYWGQGTQVTVSS
B4: Bacillus subtilis-derived VHH-COVE8 (VHH)
VHH: EVQLVESGGGLVQPGGSLTLSCAASGQTFSSYNMAWFRQSPGKEREFVATISWGGGSTGYADSVKGRFTISRDHAKNTVYLQMKDLKPEDTGAYYCYLVGLFGIQASDYWGQGTQVTVSS
B5: Bacillus subtilis-derived VHH-COVE9 (VHH)
VHH: EVQLVESGGGLVQPGGSLRLSCAASGTIFSTNAMSWYRQAPGKQRELVAAITSGGNTNYADSVKGRFTISRDNAKNTVYLQMNSLKPEDTAVYYCNAPGVVTGSYDVRNYWGQGTQVTVSS
B6: Bacillus subtilis-derived VHH-COVE2 (VHH)
VHH: AEVQLVESGGGLVQAGDSLRLSCAATRRTSSTYAMGWFRQAPGKGLEWVAAISWDGGRTYYAESVKGRFTISRDNAKNTVYLQMNSLKPEDTAVYYCYSFGGSDFLMDYWGQGTQVTVSSGGGSHHHHHH
B7: Bacillus subtilis-derived VHH-COVE1 (VHH)
VHH: AEVQLVESGGGLVQPGGSLRLSCAASGFAFSSYPMYWVRQAPGKGLEWISFIDGEGTSTSYADSVKGRFTISRDNAKNTVYLQMNSLKPEDTAVYYCNALLRRYNYGFTFDNYWGQGTQVTVSSGGGSHHHHHH
B8: Bacillus subtilis-derived VHH-COVE4 (VHH)
VHH: AEVQLVESGGDVVQPGGSLRLSCAASGFTFTTYAMTWVRQAPGEGLEAVSTISGADGSTYYADSVKGRFTISRDNANNTVYLQMNSLKPEDTAVYYCAATPWYSASHTYWGQGTQVTVSSGGGSHHHHHH
B9: VHH-COVE9-R108K (VHH)
VHH: AEVQLVESGGGLVQPGGSLRLSCAASGTIFSTNAMSWYRQAPGKQRELVAAITSGGNTNYADSVKGRFTISRDNAKNTVYLQMNSLKPEDTAVYYCNAPGVVTGSYDVKNYWGQGTQVTVSSGSHHHHHH
B10: VHH-COVE9-N109D (VHH)
VHH: AEVQLVESGGGLVQPGGSLRLSCAASGTIFSTNAMSWYRQAPGKQRELVAAITSGGNTNYADSVKGRFTISRDNAKNTVYLQMNSLKPEDTAVYYCNAPGVVTGSYDVRDYWGQGTQVTVSSGSHHHHHH
B11: VHH-COVE9-Y110S (VHH)
VHH: AEVQLVESGGGLVQPGGSLRLSCAASGTIFSTNAMSWYRQAPGKQRELVAAITSGGNTNYADSVKGRFTISRDNAKNTVYLQMNSLKPEDTAVYYCNAPGVVTGSYDVRNSWGQGTQVTVSSGSHHHHHH

What follows are binders tested against Trimeric SARS-CoV-2 spike antigen full-length (Bio-Serv) (SARS-CoV-2, UniProt P0DTC2 14-1273) (assay: ELISA, VHH on nickel plate, spike in solution (0-500 ng/mL)).

B1 and B2 are the same in “absorbance (450 nm)” value: 0.97 for the first, 0.97 for the second.

B3 and B4 are the same in “absorbance (450 nm)” value: 0.97 for the first, 0.97 for the second.

B5 and B6 are the same in “absorbance (450 nm)” value: 0.97 for the first, 0.97 for the second.

Each binder was assayed against T1, SARS-CoV-2 (2019-nCoV) spike S1-Fc recombinant protein (Sino Biological, Inc.) (SARS-CoV-2, UniProt P0DTC2 16-685) (assay: not given).

Compared with B7, B8 is 3.6-fold lower in Kd: 3.63 nM for the first, 0.997 nM for the second. The second binds more tightly here.

First: B7
Second: B8
The koff of the first is 2.5-fold higher: 0.00028 s⁻¹ for the first, 0.000114 s⁻¹ for the second.

B7 and B8 are within 1.5-fold of each other in kon: 77000 M⁻¹ s⁻¹ for the first, 115000 M⁻¹ s⁻¹ for the second.

Target: T1, SARS-CoV-2 (2019-nCoV) spike S1-Fc …
Assay: not given
Remark: another data set of the same source

Compared with B9, B10 is 2.6-fold higher in Kd: 3.28 nM for the first, 8.38 nM for the second. The first binds more tightly here.

For B11, the Kd was 4.74 nM.

First: B9
Second: B10
The koff of the first is 2.4-fold lower: 0.000437 s⁻¹ for the first, 0.00106 s⁻¹ for the second.

Binder B11 has a koff of 0.000683 s⁻¹.

B9 and B10 are within 1.5-fold of each other in kon: 133000 M⁻¹ s⁻¹ for the first, 126000 M⁻¹ s⁻¹ for the second.

With B11 the kon was 144000 M⁻¹ s⁻¹.
